# B1: Acetylcholinesterase (Homo sapiens), P22303 (protein)
# chain: MRPPQCLLHTPSLASPLLLLLLWLLGGGVGAEGREDAELLVTVRGGRLRGIRLKTPGGPVSAFLGIPFAEPPMGPRRFLPPEPKQPWSGVVDATTFQSVCYQYVDTLYPGFEGTEMWNPNRELSEDCLYLNVWTPYPRPTSPTPVLVWIYGGGFYSGASSLDVYDGRFLVQAERTVLVSMNYRVGAFGFLALPGSREAPGNVGLLDQRLALQWVQENVAAFGGDPTSVTLFGESAGAASVGMHLLSPPSRGLFHRAVLQSGAPNGPWATVGMGEARRRATQLAHLVGCPPGGTGGNDTELVACLRTRPAQVLVNHEWHVLPQESVFRFSFVPVVDGDFLSDTPEALINAGDFHGLQVLVGVVKDEGSYFLVYGAPGFSKDNESLISRAEFLAGVRVGVPQVSDLAAEAVVLHYTDWLHPEDPARLREALSDVVGDHNVVCPVAQLAGRLAAQGARVYAYVFEHRASTLSWPLWMGVPHGYEIEFIFGIPLDPSRNYTAEEKIFAQRLMRYWANFARTGDPNEPRDPKAPQWPPYTAGAQQYVSLDLRPLEVRRGLRAQACAFWNRFLPKLLSATDTLDEAERQWKAEFHRWSSYMVHWKNQFDHYSKQDRCSDL
# B2: Cholinesterase (Homo sapiens), P06276 (protein)
# chain: MHSKVTIICIRFLFWFLLLCMLIGKSHTEDDIIIATKNGKVRGMNLTVFGGTVTAFLGIPYAQPPLGRLRFKKPQSLTKWSDIWNATKYANSCCQNIDQSFPGFHGSEMWNPNTDLSEDCLYLNVWIPAPKPKNATVLIWIYGGGFQTGTSSLHVYDGKFLARVERVIVVSMNYRVGALGFLALPGNPEAPGNMGLFDQQLALQWVQKNIAAFGGNPKSVTLFGESAGAASVSLHLLSPGSHSLFTRAILQSGSFNAPWAVTSLYEARNRTLNLAKLTGCSRENETEIIKCLRNKDPQEILLNEAFVVPYGTPLSVNFGPTVDGDFLTDMPDILLELGQFKKTQILVGVNKDEGTAFLVYGAPGFSKDNNSIITRKEFQEGLKIFFPGVSEFGKESILFHYTDWVDDQRPENYREALGDVVGDYNFICPALEFTKKFSEWGNNAFFYYFEHRSSKLPWPEWMGVMHGYEIEFVFGLPLERRDNYTKAEEILSRSIVKRWANFAKYGNPNETQNNSTSWPVFKSTEQKYLTLNTESTRIMTKLRAQQCRFWTSFFPKVLEMTGNIDEAEWEWKAGFHRWNNYMMDWKNQFNDYTSKKESCVGL
# How the values were obtained:
# [1] = substrate: C#CCN(Cc1ccc2cccc(O)c2n1)C(C#N)CCC1CCN(Cc2ccccc2)CC1; settings: Homo sapiens; HEK293; 20 nM
# [2] = substrate: C#CCN(Cc1ccc2cccc(O)c2n1)C(C#N)CCC1CCN(Cc2ccccc2)CC1; settings: Homo sapiens; HEK293; 50 nM
# Description: Inhibition of human recombinant AChE expressed in HEK293 cells using acetylthiocholine iodide as substrate assessed as enzyme Km at 50 nM preincubated for 30 mins followed by substrate addition measured after 30 mins by Lineweaver-Burk plot analysis
# [3] = substrate: C#CCN(Cc1ccc2cccc(O)c2n1)C(C#N)CCC1CCN(Cc2ccccc2)CC1; settings: Homo sapiens; HEK293; 100 nM
# [4] = substrate: C#CCN(Cc1ccc2cccc(O)c2n1)C(C#N)CCC1CCN(Cc2ccccc2)CC1; settings: Homo sapiens; HEK293; 200 nM
# [5] = substrate: C#CCN(Cc1ccc2cccc(O)c2n1)C(C#N)CCC1CCN(Cc2ccccc2)CC1; settings: Homo sapiens; HEK293; 20 nM; remark: listed apart in the source
# [6] = substrate: C#CCN(Cc1ccc2cccc(O)c2n1)C(C#N)CCC1CCN(Cc2ccccc2)CC1; settings: Homo sapiens; HEK293; 50 nM; remark: listed apart in the source
# Description: Inhibition of human recombinant AChE expressed in HEK293 cells using acetylthiocholine iodide as substrate assessed as enzyme Vmax at 50 nM preincubated for 30 mins followed by substrate addition measured after 30 mins by Lineweaver-Burk plot analysis
# [7] = substrate: C#CCN(Cc1ccc2cccc(O)c2n1)C(C#N)CCC1CCN(Cc2ccccc2)CC1; settings: Homo sapiens; HEK293; 100 nM; remark: listed apart in the source
# [8] = substrate: C#CCN(Cc1ccc2cccc(O)c2n1)C(C#N)CCC1CCN(Cc2ccccc2)CC1; settings: Homo sapiens; HEK293; 200 nM; remark: listed apart in the source
# [9] = substrate: C#CCN(Cc1ccc2cccc(O)c2n1)C(C#N)CCC1CCN(Cc2ccccc2)CC1; settings: Homo sapiens; HEK293; 20 nM; remark: listed apart in the source
# [10] = substrate: C#CCN(Cc1ccc2cccc(O)c2n1)C(C#N)CCC1CCN(Cc2ccccc2)CC1; settings: Homo sapiens; HEK293; 50 nM; remark: listed apart in the source
# Description: Inhibition of human recombinant BuChE expressed in HEK293 cells using S-butyrylthiocholine iodide as substrate assessed as enzyme Km at 50 nM preincubated for 30 mins followed by substrate addition measured after 30 mins by Ellman's method
# [11] = substrate: C#CCN(Cc1ccc2cccc(O)c2n1)C(C#N)CCC1CCN(Cc2ccccc2)CC1; settings: Homo sapiens; HEK293; 100 nM; remark: listed apart in the source
# [12] = substrate: C#CCN(Cc1ccc2cccc(O)c2n1)C(C#N)CCC1CCN(Cc2ccccc2)CC1; settings: Homo sapiens; HEK293; 200 nM; remark: listed apart in the source
# [13] = substrate: C#CCN(Cc1ccc2cccc(O)c2n1)C(C#N)CCC1CCN(Cc2ccccc2)CC1; settings: Homo sapiens; HEK293; 20 nM; remark: listed apart in the source
# [14] = substrate: C#CCN(Cc1ccc2cccc(O)c2n1)C(C#N)CCC1CCN(Cc2ccccc2)CC1; settings: Homo sapiens; HEK293; 50 nM; remark: listed apart in the source
# Description: Inhibition of human recombinant BuChE expressed in HEK293 cells using S-butyrylthiocholine iodide as substrate assessed as enzyme Vmax at 50 nM preincubated for 30 mins followed by substrate addition measured after 30 mins by Lineweaver-Burk plot analysis
# [15] = substrate: C#CCN(Cc1ccc2cccc(O)c2n1)C(C#N)CCC1CCN(Cc2ccccc2)CC1; settings: Homo sapiens; HEK293; 100 nM; remark: listed apart in the source
# [16] = substrate: C#CCN(Cc1ccc2cccc(O)c2n1)C(C#N)CCC1CCN(Cc2ccccc2)CC1; settings: Homo sapiens; HEK293; 200 nM; remark: listed apart in the source
Protein,Km [1] [µM],Km [2] [µM],Km [3] [µM],Km [4] [µM],Vmax [5] [mAU/min],Vmax [6] [mAU/min],Vmax [7] [mAU/min],Vmax [8] [mAU/min],Km [9] [µM],Km [10] [µM],Km [11] [µM],Km [12] [µM],Vmax [13] [mAU/min],Vmax [14] [mAU/min],Vmax [15] [mAU/min],Vmax [16] [mAU/min]
B1,368,622,955,936,17.7,13,10.2,7.3,–,–,–,–,–,–,–,–
B2,–,–,–,–,–,–,–,–,249,289,456,1240,108,101,87,83

# — ChEMBL document CHEMBL3861952, “Donepezil-like multifunctional agents: Design, synthesis, molecular modeling and biological evaluation” (Eur J Med Chem, 2016)
